Laboratory results from paper PMC11497598.

Columns and labels:
Assay in all cases: analytical SEC
Settings in all cases: cell culture supernatant of Expi293F cells; parent: est. 72; read off a plot
[1] = biological target: B/Iowa/06/2017 HA HA1 213A
[2] = biological target: B/Iowa/06/2017 HA HA1 220F
[3] = biological target: B/Iowa/06/2017 HA HA1 220N
[4] = biological target: B/Iowa/06/2017 HA HA1 220Q
[5] = biological target: B/Iowa/06/2017 HA HA1 220T
[6] = biological target: B/Iowa/06/2017 HA HA1 259V
[7] = biological target: B/Iowa/06/2017 HA HA1 314M
[8] = biological target: B/Iowa/06/2017 HA HA1 H311M
[9] = biological target: B/Iowa/06/2017 HA HA1 K209F
[10] = biological target: B/Iowa/06/2017 HA HA1 K209I
[11] = biological target: B/Iowa/06/2017 HA HA1 K209L
[12] = biological target: B/Iowa/06/2017 HA HA1 K209Q
[13] = biological target: B/Iowa/06/2017 HA HA1 K209R
[14] = biological target: B/Iowa/06/2017 HA HA1 K209T
[15] = biological target: B/Iowa/06/2017 HA HA1 K209Y
[16] = biological target: B/Iowa/06/2017 HA HA1 T211V
[17] = biological target: B/Iowa/06/2017 HA HA1 T218N
[18] = biological target: B/Iowa/06/2017 HA HA1 T218V
[19] = biological target: B/Iowa/06/2017 HA HA1 V217K
[20] = biological target: B/Iowa/06/2017 HA HA1 V217W
[21] = biological target: B/Iowa/06/2017 HA HA2 11P
[22] = biological target: B/Iowa/06/2017 HA HA2 15P
[23] = biological target: B/Iowa/06/2017 HA HA2 18P
[24] = biological target: B/Iowa/06/2017 HA HA2 29P
[25] = biological target: B/Iowa/06/2017 HA HA2 30W
[26] = biological target: B/Iowa/06/2017 HA HA2 67T
[27] = biological target: B/Iowa/06/2017 HA HA2 91I
[28] = biological target: B/Iowa/06/2017 HA HA2 93A
[29] = biological target: B/Iowa/06/2017 HA HA2 111Q
[30] = biological target: B/Iowa/06/2017 HA HA2 116R
[31] = biological target: B/Iowa/06/2017 HA HA2 116W
[32] = biological target: B/Iowa/06/2017 HA HA2 D71P
[33] = biological target: B/Iowa/06/2017 HA HA2 E113F
[34] = biological target: B/Iowa/06/2017 HA HA2 E113L
[35] = biological target: B/Iowa/06/2017 HA HA2 E113Q
[36] = biological target: B/Iowa/06/2017 HA HA2 E113W
[37] = biological target: B/Iowa/06/2017 HA HA2 G68L
[38] = biological target: B/Iowa/06/2017 HA HA2 G68Y
[39] = biological target: B/Iowa/06/2017 HA HA2 H22Y
[40] = biological target: B/Iowa/06/2017 HA HA2 H114I
[41] = biological target: B/Iowa/06/2017 HA HA2 H114Q
[42] = biological target: B/Iowa/06/2017 HA HA2 H114W
[43] = biological target: B/Iowa/06/2017 HA HA2 H114Y
[44] = biological target: B/Iowa/06/2017 HA HA2 Q64F
[45] = biological target: B/Iowa/06/2017 HA HA2 Q64P
[46] = biological target: B/Iowa/06/2017 HA HA2 Q64W
[47] = biological target: B/Iowa/06/2017 HA HA2 Q64Y
[48] = biological target: B/Iowa/06/2017 HA HA2 S40A
[49] = biological target: B/Iowa/06/2017 HA HA2 S110R
[50] = biological target: B/Iowa/06/2017 HA HA2 S110W

“wild-type soluble hemagglutinin (HA) of influenza B/Iowa/06/2017 HA1:213A” showed an other: trimer fraction [1] of 82%.
Work on “wild-type soluble hemagglutinin (HA) of influenza B/Iowa/06/2017 HA1:220F” yielded an other: trimer fraction [2] of 85%.
“wild-type soluble hemagglutinin (HA) of influenza B/Iowa/06/2017 HA1:220N” showed an other: trimer fraction [3] of 71%.
With “wild-type soluble hemagglutinin (HA) of influenza B/Iowa/06/2017 HA1:220Q” the other: trimer fraction [4] was 62%.
In the case of “wild-type soluble hemagglutinin (HA) of influenza B/Iowa/06/2017 HA1:220T”, the other: trimer fraction [5] is reported as 79%.
For “wild-type soluble hemagglutinin (HA) of influenza B/Iowa/06/2017 HA1:259V”, the other: trimer fraction [6] was 92%.
In the case of “wild-type soluble hemagglutinin (HA) of influenza B/Iowa/06/2017 HA1:314M”, the other: trimer fraction [7] is reported as 49%.
“wild-type soluble hemagglutinin (HA) of influenza B/Iowa/06/2017 HA1:H311M” gave an other: trimer fraction [8] of 68%.
“wild-type soluble hemagglutinin (HA) of influenza B/Iowa/06/2017 HA1:K209F” was tested, and the other: trimer fraction [9] was 96%.
With “wild-type soluble hemagglutinin (HA) of influenza B/Iowa/06/2017 HA1:K209I” the other: trimer fraction [10] was 93%.
For “wild-type soluble hemagglutinin (HA) of influenza B/Iowa/06/2017 HA1:K209L”, the other: trimer fraction [11] was 96%.
“wild-type soluble hemagglutinin (HA) of influenza B/Iowa/06/2017 HA1:K209Q” gave an other: trimer fraction [12] of 98%.
For “wild-type soluble hemagglutinin (HA) of influenza B/Iowa/06/2017 HA1:K209R”, the other: trimer fraction [13] was 79%.
“wild-type soluble hemagglutinin (HA) of influenza B/Iowa/06/2017 HA1:K209T” was tested, and the other: trimer fraction [14] was 98%.
In the case of “wild-type soluble hemagglutinin (HA) of influenza B/Iowa/06/2017 HA1:K209Y”, the other: trimer fraction [15] is reported as 92%.
“wild-type soluble hemagglutinin (HA) of influenza B/Iowa/06/2017 HA1:T211V” was tested, and the other: trimer fraction [16] was 78%.
“wild-type soluble hemagglutinin (HA) of influenza B/Iowa/06/2017 HA1:T218N” showed an other: trimer fraction [17] of 89%.
For “wild-type soluble hemagglutinin (HA) of influenza B/Iowa/06/2017 HA1:T218V”, the other: trimer fraction [18] was 69%.
For “wild-type soluble hemagglutinin (HA) of influenza B/Iowa/06/2017 HA1:V217K”, the other: trimer fraction [19] was 91%.
With “wild-type soluble hemagglutinin (HA) of influenza B/Iowa/06/2017 HA1:V217W” the other: trimer fraction [20] was 96%.
“wild-type soluble hemagglutinin (HA) of influenza B/Iowa/06/2017 HA2:11P” gave an other: trimer fraction [21] of 76%.
“wild-type soluble hemagglutinin (HA) of influenza B/Iowa/06/2017 HA2:15P” showed an other: trimer fraction [22] of 69%.
“wild-type soluble hemagglutinin (HA) of influenza B/Iowa/06/2017 HA2:18P” gave an other: trimer fraction [23] of 57%.
With “wild-type soluble hemagglutinin (HA) of influenza B/Iowa/06/2017 HA2:29P” the other: trimer fraction [24] was 77%.
Work on “wild-type soluble hemagglutinin (HA) of influenza B/Iowa/06/2017 HA2:30W” yielded an other: trimer fraction [25] of 69%.
“wild-type soluble hemagglutinin (HA) of influenza B/Iowa/06/2017 HA2:67T” showed an other: trimer fraction [26] of 77%.
“wild-type soluble hemagglutinin (HA) of influenza B/Iowa/06/2017 HA2:91I” was tested, and the other: trimer fraction [27] was 56%.
With “wild-type soluble hemagglutinin (HA) of influenza B/Iowa/06/2017 HA2:93A” the other: trimer fraction [28] was 87%.
For “wild-type soluble hemagglutinin (HA) of influenza B/Iowa/06/2017 HA2:111Q”, the other: trimer fraction [29] was 84%.
Work on “wild-type soluble hemagglutinin (HA) of influenza B/Iowa/06/2017 HA2:116R” yielded an other: trimer fraction [30] of 86%.
With “wild-type soluble hemagglutinin (HA) of influenza B/Iowa/06/2017 HA2:116W” the other: trimer fraction [31] was 90%.
Substance “wild-type soluble hemagglutinin (HA) of influenza B/Iowa/06/2017 HA2:D71P” has an other: trimer fraction [32] of 88%.
“wild-type soluble hemagglutinin (HA) of influenza B/Iowa/06/2017 HA2:E113F” was tested, and the other: trimer fraction [33] was 98%.
Substance “wild-type soluble hemagglutinin (HA) of influenza B/Iowa/06/2017 HA2:E113L” has an other: trimer fraction [34] of 97%.
Work on “wild-type soluble hemagglutinin (HA) of influenza B/Iowa/06/2017 HA2:E113Q” yielded an other: trimer fraction [35] of 97%.
“wild-type soluble hemagglutinin (HA) of influenza B/Iowa/06/2017 HA2:E113W” showed an other: trimer fraction [36] of 100%.
Work on “wild-type soluble hemagglutinin (HA) of influenza B/Iowa/06/2017 HA2:G68L” yielded an other: trimer fraction [37] of 97%.
“wild-type soluble hemagglutinin (HA) of influenza B/Iowa/06/2017 HA2:G68Y” gave an other: trimer fraction [38] of 96%.
“wild-type soluble hemagglutinin (HA) of influenza B/Iowa/06/2017 HA2:H22Y” showed an other: trimer fraction [39] of 85%.
With “wild-type soluble hemagglutinin (HA) of influenza B/Iowa/06/2017 HA2:H114I” the other: trimer fraction [40] was 55%.
Work on “wild-type soluble hemagglutinin (HA) of influenza B/Iowa/06/2017 HA2:H114Q” yielded an other: trimer fraction [41] of 65%.
“wild-type soluble hemagglutinin (HA) of influenza B/Iowa/06/2017 HA2:H114W” was tested, and the other: trimer fraction [42] was 43%.
Work on “wild-type soluble hemagglutinin (HA) of influenza B/Iowa/06/2017 HA2:H114Y” yielded an other: trimer fraction [43] of 65%.
“wild-type soluble hemagglutinin (HA) of influenza B/Iowa/06/2017 HA2:Q64F” gave an other: trimer fraction [44] of 96%.
“wild-type soluble hemagglutinin (HA) of influenza B/Iowa/06/2017 HA2:Q64P” gave an other: trimer fraction [45] of 65%.
“wild-type soluble hemagglutinin (HA) of influenza B/Iowa/06/2017 HA2:Q64W” gave an other: trimer fraction [46] of 93%.
Work on “wild-type soluble hemagglutinin (HA) of influenza B/Iowa/06/2017 HA2:Q64Y” yielded an other: trimer fraction [47] of 98%.
For “wild-type soluble hemagglutinin (HA) of influenza B/Iowa/06/2017 HA2:S40A”, the other: trimer fraction [48] was 52%.
Substance “wild-type soluble hemagglutinin (HA) of influenza B/Iowa/06/2017 HA2:S110R” has an other: trimer fraction [49] of 86%.
“wild-type soluble hemagglutinin (HA) of influenza B/Iowa/06/2017 HA2:S110W” gave an other: trimer fraction [50] of 51%.
